# Results published in PMC7291619.
# Target: in vitro-polymerized and paclitaxel-stabilized microtubules (UniProt P02554)
# Assay: co-sedimentation; varied concentrations of purified His-TbSpef1 incubated with in vitro-assembled, paclitaxel-stabilized microtubules at room temperature for 30 min; diluted in cushion buffer (80 mM PIPES pH 7.0, 1 mM MgCl2, 1 mM EGTA, 60% glycerol, 20 uM paclitaxel); 100,000 x g, 30°C, 30 min; pellets and supernatants immunoblotted
# Chain of in vitro-polymerized and paclitaxel-stabilized microtubules (P68363 whole entry, chain 1 of 2): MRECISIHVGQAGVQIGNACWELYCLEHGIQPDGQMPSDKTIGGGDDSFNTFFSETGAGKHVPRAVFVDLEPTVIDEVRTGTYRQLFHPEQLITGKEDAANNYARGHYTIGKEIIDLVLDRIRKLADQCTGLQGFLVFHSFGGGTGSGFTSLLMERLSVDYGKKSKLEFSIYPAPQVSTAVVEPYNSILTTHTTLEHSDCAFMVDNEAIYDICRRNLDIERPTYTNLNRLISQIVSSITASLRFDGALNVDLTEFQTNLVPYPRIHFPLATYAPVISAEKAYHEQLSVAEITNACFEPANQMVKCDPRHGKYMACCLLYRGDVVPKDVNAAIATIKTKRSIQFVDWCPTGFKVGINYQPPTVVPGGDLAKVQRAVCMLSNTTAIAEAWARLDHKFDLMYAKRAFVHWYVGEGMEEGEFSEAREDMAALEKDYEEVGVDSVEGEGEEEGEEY
# Chain of in vitro-polymerized and paclitaxel-stabilized microtubules (P02554 whole entry, chain 2 of 2): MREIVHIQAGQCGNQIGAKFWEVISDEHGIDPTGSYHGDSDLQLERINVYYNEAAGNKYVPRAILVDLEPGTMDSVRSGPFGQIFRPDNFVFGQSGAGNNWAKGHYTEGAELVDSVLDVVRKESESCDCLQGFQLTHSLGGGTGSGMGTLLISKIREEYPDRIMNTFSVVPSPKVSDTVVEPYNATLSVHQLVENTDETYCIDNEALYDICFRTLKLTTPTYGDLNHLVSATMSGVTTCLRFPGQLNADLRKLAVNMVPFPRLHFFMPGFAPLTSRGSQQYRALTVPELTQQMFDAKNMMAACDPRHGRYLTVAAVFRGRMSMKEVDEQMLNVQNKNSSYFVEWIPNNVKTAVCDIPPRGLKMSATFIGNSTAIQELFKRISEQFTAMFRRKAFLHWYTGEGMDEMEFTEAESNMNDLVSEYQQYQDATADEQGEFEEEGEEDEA
substance,measurement,value
His-TbSpef1 (natural protein),stoichiometry N (TbSpef1 per α/β-tubulin dimer),> 1
